Key:
Assay in all cases: EMSA
[1] = molecular target: T1, scMtRNAP ΔHNG (UniProt P13433 1-640+644-1351, internal_change)
T1 sequence: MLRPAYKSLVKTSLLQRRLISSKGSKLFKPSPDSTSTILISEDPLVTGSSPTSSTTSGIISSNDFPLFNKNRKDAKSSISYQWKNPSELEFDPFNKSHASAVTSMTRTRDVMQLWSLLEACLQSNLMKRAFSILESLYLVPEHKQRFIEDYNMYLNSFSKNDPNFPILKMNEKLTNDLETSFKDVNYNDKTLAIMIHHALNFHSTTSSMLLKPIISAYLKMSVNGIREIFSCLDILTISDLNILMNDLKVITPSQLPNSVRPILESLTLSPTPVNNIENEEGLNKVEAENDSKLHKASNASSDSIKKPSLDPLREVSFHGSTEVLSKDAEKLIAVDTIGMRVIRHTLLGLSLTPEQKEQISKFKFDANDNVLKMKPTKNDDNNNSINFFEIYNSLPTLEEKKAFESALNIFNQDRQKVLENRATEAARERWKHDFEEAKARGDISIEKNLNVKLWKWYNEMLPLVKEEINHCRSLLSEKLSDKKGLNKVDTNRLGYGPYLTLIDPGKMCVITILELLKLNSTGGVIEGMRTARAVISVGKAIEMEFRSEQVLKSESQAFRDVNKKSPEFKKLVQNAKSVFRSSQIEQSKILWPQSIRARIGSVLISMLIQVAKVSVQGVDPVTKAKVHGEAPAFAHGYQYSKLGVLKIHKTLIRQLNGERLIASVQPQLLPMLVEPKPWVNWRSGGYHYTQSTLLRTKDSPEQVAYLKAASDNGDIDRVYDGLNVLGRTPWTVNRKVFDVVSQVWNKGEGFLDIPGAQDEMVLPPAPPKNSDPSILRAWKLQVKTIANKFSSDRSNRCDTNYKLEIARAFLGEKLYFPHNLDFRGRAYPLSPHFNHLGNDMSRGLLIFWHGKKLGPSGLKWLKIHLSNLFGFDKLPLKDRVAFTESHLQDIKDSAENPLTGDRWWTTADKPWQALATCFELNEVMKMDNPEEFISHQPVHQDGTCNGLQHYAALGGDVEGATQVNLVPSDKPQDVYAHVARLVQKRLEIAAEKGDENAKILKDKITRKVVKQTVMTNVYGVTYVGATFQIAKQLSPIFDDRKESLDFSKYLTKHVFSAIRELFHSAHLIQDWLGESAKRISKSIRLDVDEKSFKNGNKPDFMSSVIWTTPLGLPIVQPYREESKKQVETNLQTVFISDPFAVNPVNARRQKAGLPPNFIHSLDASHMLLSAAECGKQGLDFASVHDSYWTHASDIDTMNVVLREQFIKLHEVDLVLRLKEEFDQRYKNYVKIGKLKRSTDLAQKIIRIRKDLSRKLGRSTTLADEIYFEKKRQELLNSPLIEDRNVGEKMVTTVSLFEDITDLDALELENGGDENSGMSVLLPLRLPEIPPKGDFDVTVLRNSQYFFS

[2] = molecular target: T2, yeast mitochondrial RNA polymerase (scMtRNAP) WT (UniProt P13433 1-1351)
T2 sequence: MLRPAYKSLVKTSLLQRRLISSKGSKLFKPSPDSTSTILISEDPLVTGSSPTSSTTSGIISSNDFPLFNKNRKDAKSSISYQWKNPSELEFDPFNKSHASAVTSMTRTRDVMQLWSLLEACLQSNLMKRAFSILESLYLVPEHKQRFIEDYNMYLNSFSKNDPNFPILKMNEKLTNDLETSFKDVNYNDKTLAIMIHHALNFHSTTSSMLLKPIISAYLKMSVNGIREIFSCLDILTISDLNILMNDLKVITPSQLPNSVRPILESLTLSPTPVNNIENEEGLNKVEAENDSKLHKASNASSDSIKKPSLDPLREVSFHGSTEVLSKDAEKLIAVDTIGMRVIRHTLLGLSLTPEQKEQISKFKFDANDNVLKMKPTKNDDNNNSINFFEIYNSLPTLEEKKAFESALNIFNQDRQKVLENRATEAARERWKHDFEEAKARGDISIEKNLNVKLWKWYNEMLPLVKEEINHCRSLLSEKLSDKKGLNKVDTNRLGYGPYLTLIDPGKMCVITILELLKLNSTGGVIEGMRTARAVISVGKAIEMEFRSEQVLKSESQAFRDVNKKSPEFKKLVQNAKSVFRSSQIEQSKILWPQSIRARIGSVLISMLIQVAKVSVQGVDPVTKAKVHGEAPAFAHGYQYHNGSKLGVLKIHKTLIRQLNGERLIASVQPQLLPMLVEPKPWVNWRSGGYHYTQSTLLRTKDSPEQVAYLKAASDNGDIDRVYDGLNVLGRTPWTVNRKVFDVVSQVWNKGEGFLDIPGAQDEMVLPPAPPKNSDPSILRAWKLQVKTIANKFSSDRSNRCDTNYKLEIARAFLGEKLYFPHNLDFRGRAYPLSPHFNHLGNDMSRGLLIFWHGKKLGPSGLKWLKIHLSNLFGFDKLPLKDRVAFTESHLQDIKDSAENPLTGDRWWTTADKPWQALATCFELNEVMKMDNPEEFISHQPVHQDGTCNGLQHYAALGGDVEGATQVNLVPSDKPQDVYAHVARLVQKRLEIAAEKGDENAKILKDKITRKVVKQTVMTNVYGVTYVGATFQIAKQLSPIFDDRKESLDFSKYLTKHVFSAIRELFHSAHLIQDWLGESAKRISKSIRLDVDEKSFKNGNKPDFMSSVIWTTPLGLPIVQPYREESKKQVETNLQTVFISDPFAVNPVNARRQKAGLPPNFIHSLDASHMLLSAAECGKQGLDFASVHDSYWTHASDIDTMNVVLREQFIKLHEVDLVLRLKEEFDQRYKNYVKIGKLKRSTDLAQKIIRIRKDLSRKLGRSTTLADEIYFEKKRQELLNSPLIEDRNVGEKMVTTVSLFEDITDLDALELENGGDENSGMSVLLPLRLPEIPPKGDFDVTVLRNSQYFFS

[3] = molecular target: scMtRNAP ΔHNG;MTF1 (yeast mitochondrial transcription factor) (Saccharomyces cerevisiae?;Saccharomyces …, UniProt P13433;P14908 1-640+644-1351;1-341, internal_change|)
[4] = molecular target: yeast mitochondrial RNA polymerase (scMtRNAP) WT;MTF1 (yeast mitochondrial transcription factor) (Saccharomyces cerevisiae?;Saccharomyces …, UniProt P13433;P14908 1-1351;1-341, |)
[5] = molecular target: scMtRNAP ΔNGS;MTF1 (yeast mitochondrial transcription factor) (Saccharomyces cerevisiae?;Saccharomyces …, UniProt P13433;P14908 1-641+645-1351;1-341, internal_change|)
Sequence of scMtRNAP ΔNGS;MTF1 (yeast mitochondrial transcription factor) (P14908 whole entry, stated change not applied, one chain of several): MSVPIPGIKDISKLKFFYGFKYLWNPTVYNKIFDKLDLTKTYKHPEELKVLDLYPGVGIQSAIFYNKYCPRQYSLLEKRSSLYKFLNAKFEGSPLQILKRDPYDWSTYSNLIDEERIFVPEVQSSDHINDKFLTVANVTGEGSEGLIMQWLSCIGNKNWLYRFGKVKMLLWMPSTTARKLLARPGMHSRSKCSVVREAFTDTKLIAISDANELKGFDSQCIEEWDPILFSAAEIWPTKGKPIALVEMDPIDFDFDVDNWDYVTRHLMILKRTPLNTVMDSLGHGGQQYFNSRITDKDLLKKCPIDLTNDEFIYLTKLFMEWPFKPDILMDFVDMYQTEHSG

B1: 33 bp Bubble (pre-melted) promoter (dsDNA)
DNA 1: CGCGTAAAACTATTCTTTATTACTTATATCGCG
DNA 2: CGCGATATGCAGCTTAAAGAATAGTTTTACGCG
For B1, the Kd [1] was 5.3 µM, the Kd [2] was 4.3 µM and the Kd [3] was 0.34 µM. The Kd [4] was 0.16 µM and the Kd [5] was 0.43 µM.

Reference: article PMC3361065 (Biochemistry, 2012)
